# Test results published in the DeepSol protein solubility set.
# Assay: soluble on expression in E. coli; label from the status in PepcDB or PDB records
row,Sequence,soluble on expression in E. coli
1,MNKVLINDTTLRDGEQAAGVVFTLEEKVAIAKFLDTIGVPELEVGIPAMGEEEMRAICAISNLGLKANLLAWNRAVISDIKASVACGMERVHIAIPVSGIQIAAKFHGQWRVSLQRLKDCISFAVDQGLWVAVGGEDSSRADENFLLDVALYAQEWGASRFRFCDTVGVLDPFTTYGKVKLLVSALTIPVEVHTHNDFGMATANALAGIKAGASSVNTTVIGLGERAGNAALEEVVMAIKRIYGVDMGIDTPRLLELSQLVAAASGANVPPWKAIVGENTFAHESGIHAHGVLQNPDTYEPFAPEEVGWERRLVVGKHSGRHSVSNLLEQHGIFLNPEETQSVLDAVRQQSIKKKRSLTTEELLNLVKEQR,not soluble
2,MNLAGSTIQAYRQRKIESLAKMSNMSQDDVTTGLRTVQQGLEALREEHSTISNTLETSVKGVKEDEAPLPKQKLSQINDNLDKLVCGVDETSLMLMVFQLTQGMDAQHQKYQAQRRRLCQENAWLRDELSSTQIKLQQSEQMVAQLEEENKHLKYMASIKQFDDGTQSDTKTSVDVGPQPVTNETLQELGFGPEDEEDMNASQFNQPTPANQMAASANVGYEIPARLRTLHNLVIQYASQGRYEVAVPLCKQALEDLEKTSGHDHPDVATMLNILALVYRDQNKYKEAANLLNEALSIREKCLGESHPAVAATLNNLAVLFGKRGKFKDAEPLCKRALEIREKVLGDDHPDVAKQLNNLALLCQNQGKYEEVEKYYKRALEIYESKLGPDDPNVAKTKNNLSSAYLKQGKYKEAEELYKQILTRAHEREFGQISGENKPIWQIAEEREENKHKGEGATANEQAGWAKAAKVDSPTVTTTLKNLGALYRRQGKYEAAETLEDVALRAKKQMSESRRMERSVMY,not soluble
3,MNLDDKALFLDAMEDVQPLKRHTDVHWQPTRNLKTPQRIDTLQLDNFLTTGFLDILPLNEPLEFRREGLQQGVIDKLRSGKYPQQASLNLLRQPVETCRKMLFRFILEAQKEGLRNVLIIHGKGREAKSHANIVRSYVARWLTEFEDVQAYCSALPHHGGGGACYVALRKTVQAKQDNWERHAKRSR,not soluble
4,MNLGDLTNFVEKPLAAVSNIVNTPNSAGRYRPFYLRNLLDAVQGRNLNDAVKGKVVLITGGSSGIGAAAAKKIAEAGGTVVLVARTLENLENVANDIRAIRGNGGTAHVYPCDLSDMDAIAVMADQVLGDLGGVDILINNAGRSIRRSLELSYDRIHDYQRTMQLNYLGAVQLILKFIPGMRERHFGHIVNVSSVGVQTRAPRFGAYIASKAALDSLCDALQAETVHDNVRFTTVHMALVRTPMISPTTIYDKFPTLTPDQAAGVITDAIVHRPRRASSPFGQFAAVADAVNPAVMDRVRNRAFNMFGDSSAAKGSESQTDTSELDKRSETFVRATRGIHW,soluble
5,MNLHQTVEHEAAAAFAAAGIAGSPVVLQPTKNAEHGDFQINGVMGAAKKAKQNPRELAQKVADALAGNAVIESAEVAGPGFINLRLRHEFLAQNIHAALNDARF,not soluble
6,MNLIDYKARERGIEVEMPDERGTSSSCSVCGHEDEDSRVERGLWKCDCCGIVAHGDVNGADNIRQKTLPVTPPLGGSGNGCLAQPCVIQFSRTRGFQPRAPAELEHHHHHH,soluble
7,MNLKDMEQNSAKAVVLLKAMANERRLQILCMLHNQELSVGELCAKLQLSQSALSQHLAWLRRDGLVTTRKEAQTVYYTLKSEEVKAMIKLLHSLYCEE,soluble
8,MNLNFIVPDINMTFGDMKFMGLNRERYVYDRENNKRTDVLESRIYNIASAVQGGQIEVTIPEYAGAKEIPPFADIELKNPKISAMATSQRDSTYANVMWKLEADDIVVKGGSSVKPAAATGGNEKKLEHHHHHH,not soluble
9,MNLNKNLPTGTRDKLFREARASYQIEQQVNHYFAKRGFKRIETPVIEFEDVFSSEHQADAKLYRFFDEKGRLTVLRPDMTLPIGRVVSTTGVTLPLKLSYSGKIFRANEDFGGEQNEQTQAGIEIIGYPSIKAEIECILSGIGVLNALEIPNFQIELGHAAIYRRVIHLLNLPETAEMDFRLLIQNKSLTGIQQFVTENPSTLDDFILALPRLFGPATTILKQAKNLTTDKGILTALTEMETIVDAVSYAADISVDLGLVQDFHYYTGIIFRGYADLAADNFLSGGRYDHLLEQFTSSSSPAVGLALNLDSLTT,not soluble
10,MNLPDGTQLVVGRQLAKVKSNQNWIRIPEYKVRGNKVIISHLWVGSINMPRRPFWSFRELWEKHLGRKDAINVWSRIRSYNTQVLLKILELLEKEPETQAKKLVKRATMHQLRNIAESFEEL,not soluble
11,MNLSEITQQMGEVGKTLSDSVPELLNSTDLVNDPEKMLELQFAVQQYSAYVNVESGMLKTIKDLVSTISNRSF,not soluble
